{"source": "patent US20220096548A1", "binders": {"B1": {"name": "scFv antibody derived from reference Antibody 1 (binding to IL-6R), fused with an Fc fragment of human IgG1 (Fc fusion, not shown: a dimerising Fc or GST)", "scFv": "DIQMTQSPSSVSASVGDRVTITCRASQGISSWLAWYQQKPGKAPKLLIYGASSLESGVPSRFSGSGSGTDFTLTISSLQPEDFASYYCQQANSFPYTFGQGTKLEIKGGGGSGGGGSGGGGSEVQLVESGGGLVQPGRSLRLSCAASRFTFDDYAMHWVRQAPGKGLEWVSGISWNSGRIGYADSVKGRFTISRDNAENSLFLQMNGLRAEDTALYYCAKGRDSFDIWGQGTMVTVSS"}, "B2": {"name": "scFv antibody derived from reference Antibody 2 (binding to IL-6), fused with an Fc fragment of human IgG1 (Fc fusion, not shown: a dimerising Fc or GST)", "scFv": "EIVLTQSPATLSLSPGERATLSCSASISVSYMYWYQQKPGQAPRLLIYDMSNLASGIPARFSGSGSGTDFTLTISSLEPEDFAVYYCMQWSGYPYTFGGGTKVEIKGGGGSGGGGSGGGGSEVQLVESGGGLVQPGGSLRLSCAASGFTFSPFAMSWVRQAPGKGLEWVAKISPGGSWTYYSDTVTGRFTISRDNAKNSLYLQMNSLRAEDTAVYYCARQLWGYYALDIWGQGTTVTVSS"}, "B3": {"name": "scFv antibody derived from reference Antibody 3 (binding to IL-6), fused with an Fc fragment of human IgG1 (Fc fusion, not shown: a dimerising Fc or GST)", "scFv": "QIVLIQSPAIMSASPGEKVTMTCSASSSVSYMYWYQQKPGSSPRLLIYDTSNLASGVPVRFSGSGSGTSYSLTISRMEAEDAATYYCQQWSGYPYTFGGGTKLEIKGGGGSGGGGSGGGGSEVQLVESGGKLLKPGGSLKLSCAASGFTFSSFAMSWFRQSPEKRLEWVAEISSGGSYTYYPDTVTGRFTISRDNAKNTLYLEMSSLRSEDTAMYYCARGLWGYYALDYWGQGTSVTVSS"}, "B4": {"name": "scFv antibody derived from reference Antibody 4 (binding to IL-6R), fused with an Fc fragment of human IgG1 (Fc fusion, not shown: a dimerising Fc or GST)", "scFv": "QVQLQESGPGLVRPSQTLSLTCTVSGYSITSDHAWSWVRQPPGRGLEWIGYISYSGITTYNPSLKSRVTMLRDTSKNQFSLRLSSVTAADTAVYYCARSLARTTAMDYWGQGSLVTVSSGGGGSGGRASGGGGSGGGGSDIQMTQSPSSLSASVGDRVTITCRASQDISSYLNWYQQKPGKAPKLLIYYTSRLHSGVPSRFSGSGSGTDFTFTISSLQPEDIATYYCQQGNTLPYTFGQGTKVEIK"}}, "key": {"[1]": {"target": "IL-6R expressed on HEK-Blue IL-6 reporter cells (UniProt P08887)", "sequence (P08887 20-468 limits assumed)": "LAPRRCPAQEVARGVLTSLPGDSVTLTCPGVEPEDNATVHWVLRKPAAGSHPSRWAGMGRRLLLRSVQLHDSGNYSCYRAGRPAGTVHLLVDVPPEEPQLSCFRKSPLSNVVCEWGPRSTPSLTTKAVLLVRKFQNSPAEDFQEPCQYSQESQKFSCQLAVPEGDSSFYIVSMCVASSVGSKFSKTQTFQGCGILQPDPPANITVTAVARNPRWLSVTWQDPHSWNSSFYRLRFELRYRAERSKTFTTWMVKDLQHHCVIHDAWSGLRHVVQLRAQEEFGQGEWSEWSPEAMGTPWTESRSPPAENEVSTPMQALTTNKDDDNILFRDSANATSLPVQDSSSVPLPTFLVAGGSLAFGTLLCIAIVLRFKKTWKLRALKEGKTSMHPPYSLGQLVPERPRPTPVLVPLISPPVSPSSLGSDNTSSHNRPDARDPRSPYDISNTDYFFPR", "test": "cell-based or functional assay"}, "human IL-6 (human)": {"target": "human IL-6 (human) (UniProt P05231)", "sequence (P05231 30-212 limits assumed)": "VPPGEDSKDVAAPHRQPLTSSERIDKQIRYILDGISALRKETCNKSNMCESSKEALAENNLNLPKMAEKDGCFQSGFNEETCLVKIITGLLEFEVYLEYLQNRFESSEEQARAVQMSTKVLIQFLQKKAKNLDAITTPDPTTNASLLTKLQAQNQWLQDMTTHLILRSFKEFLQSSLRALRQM", "test": "cell-based or functional assay"}}, "data": [{"binder": "B1", "values": [{"measurement": "inhibition of IL-6 signaling (SEAP production by HEK-Blue IL-6 reporter cells, 2 ng/ml human IL-6)", "setting": "[1]", "result": 100, "unit": "%"}]}, {"binder": "B2", "values": [{"measurement": "inhibition of IL-6 signaling (SEAP production by HEK-Blue IL-6 reporter cells, 2 ng/ml human IL-6)", "setting": "human IL-6 (human)", "result": 100, "unit": "%"}]}, {"binder": "B3", "values": [{"measurement": "inhibition of IL-6 signaling (SEAP production by HEK-Blue IL-6 reporter cells, 2 ng/ml human IL-6)", "setting": "human IL-6 (human)", "result": "< 60", "unit": "%"}]}, {"binder": "B4", "values": [{"measurement": "inhibition of IL-6 signaling (SEAP production by HEK-Blue IL-6 reporter cells, 2 ng/ml human IL-6)", "setting": "[1]", "result": "< 60", "unit": "%"}]}]}
